Measured values taken from the RNAGym collection of RNA variant scans (doi:10.1073/pnas.2313332121).
Fewer inactive variants are shown than the library holds.

B1: TPR 5TU (parent)
chain: GGAUCUUCUCGAUCUAACAAAAAAGACAAAUCUGCCACAAAGCUUGAGAGCAUCUUCGGAUGCAGAGGCGGCAGCCUUCGGUGGCGCGAUAGCGCCAACGUUCUCAACUAUGACACGCAAAACGCGUGCUCCGUUGAAUGGAGUUUAUCAUG

Variants of: B1
Experiment: polymerase ribozyme fitness, log enrichment relative to wild type (log ratio); higher = more active; in vitro selection for triplet polymerase activity
Procedure, shortened: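 Each subunit of a heterodimeric triplet polymerase ribozyme was mutagenized into a library by PCR, transcribed, and subjected to one round of in vitro selection, run in triplicate. Libraries were annealed with a biotinylated primer, the partner subunit and triplets, incubated frozen at −7 °C, and extended constructs were gel-excised, captured on streptavidin beads and recovered by RT-PCR. Input and output libraries were sequenced on Illumina, keeping genotypes with ≥10 input reads and ≥1 read per output. Fitness is log base 2 of genotype enrichment divided by wild-type enrichment, from inverse-variance-weighted replicate averages.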

Variant	polymerase ribozyme fitness (log ratio)
GGAUCUUCUCGAUCUAACAAAACAGACAAAUCUGCCACAAAGUUUGCGAGCAUCUUGGGAUGCAGAGGCGGCAGCCUUCGGUGGCGAGAUAGCGCCAACGUUCUCAACUAUGACACGCAAGACGCGUGCUCCGUUGAAUGGACGUUAUCAUG [A23C C43U A47C C57G C87A A121G G143C U144G]	≤ -4.2
GGAUCUUCUCGAUCUAACAAAACAGACAAAUCUGCCACAAAGCUUGAGAGCAUCUACGGAUGCAGAGGCGGCAGCCUUCGGUGGCUCGAUAGCGCCAACGUUCUCAACUAUGACGCGCAAAACGCGUGCUCCGUUGAAUGGAGUUUAUCAUG [A23C U56A G86U A115G]	≤ -4.2
GGAUCUUCUCGAUCUAACAAAACAGACAAAUCUGCCACAAAGCUUGAGAGCAUCUUCGGAUGCAGAGGCGGCAGCCUUCGGUGGCGCGAUAGCGCCAACGUUCUCAAGUAUGACGCGCAAAACGCGUGCUCCGUUGAUUGGAGUUUACCAUG [A23C C108G A115G A138U U148C]	≤ -4.2
GGAUCUUCUCGAUCUAACAAAAGAGACAAAUCUGCCAUAAAGCUUGAGAGCAUCUUCGGAAGCAGAGGAGGCAGCUUUCGGUGGCGCGAUAGCGCGAACGUUCUCAACUAUGACAUUCAAAACGCGUGCUCCGUUGAAUGGAGUUUAUCAUG [A23G C38U U61A C69A C76U C96G C116U G117U]	≤ -4.2
GGAUCUUCUCGAUCUAACAAAAGAGACAAAUCUGCCACAAAGCUUGAGAGCAUCUUCGGAUGCAGAGGCGGCUGCCUUCGCUGGCGCGAUAGCGCCAACGUUCUCAACUAUGACACGCAAAACGCGUGCUCCGUUGAAUGGAGUUUAUCAUG [A23G A73U G81C]	-4.17
GGAUCUUCUCGAUCUAACAAAACAGACAAAUCUGCCACAAAGCUUGAGAGCAUCUUCGGAUGCAGAGGCGGCAGCCUUCGGUGGCGCGAUAGCGCCAACGUUCUCAACUAUGACACGCAAAACGCGUGCUCCAUCGAAUGAAGUUUAUCCUG [A23C G133A U135C G141A A150C]	≤ -4.2
GGAUCUUCUCGAUCUAACAAAACAGACAAAUCUGCCACAAAGCUUGAGAGCAUCUUCGGAUGCGGAGGCCGCAGCCUUCGGUGGCGCGAUAGCGCCAACGUUCUCAACUAUGACACGCAAAACGCGUGCUCCGUUGAAUGGAGUUUAUCAUG [A23C A64G G70C]	≤ -4.2
GGAUCUUCUCGAUCUAACAAAAGAGACAGAUCUGCCACAAAGCUUGAGAGCAUCUUCGGAUGCAGAGGCGGCAGCCUUCGGUGGCGCGAUAGCGGCAACGUUCUCAACUAUGACACGCAAAACGCGUGCUCCGUUGAAUGGAGUUUAUCAUU [A23G A29G C95G G152U]	-3.84
GGAUCUUCUCGAUCUAACAAAACAGACAAAUCUGCCACAAAGCCUGAGAGCAUCGUAGGAUGCAGAGGCGGCAGCCUUCGGUGGCGCGAUAGUGCCAACGUUCUCAACUAUGACACGCAAAACGCGUGCUCCGUUGAAUGGAGUAUAUCAUG [A23C U44C U55G C57A C93U U145A]	≤ -4.2
GGAUCUUCUCGAUCUAACAAAACAGACAAAUCUGCCACAAAGCUCGAGAGCCUCAUCGGAUGCAGAGGCGGCAGGUUUCGGUGGCGCGAUAGAGCCAACGUUCUCAACUAUGACACGCGAAACGCGUGCUCCGUUGAAUGGAUUUUAUCAUG [A23C U45C A52C U55A C75G C76U C93A A119G G143U]	-4.17
GGAUCUUCUCGAUCUAACAAAACAGACAAAUCUGCCACAAAGCUUGAGAGCAUCUUUGGAUGCAGAGGCGGCACCCUUCGGUGGCGCGAUAUCGCCAACGUACUCAACUAUGACCCGCAAAACGCGUGCUCCGUUGAAUGGACUUUAUCAAG [A23C C57U G74C G92U U102A A115C G143C U151A]	≤ -4.2
GGAUCUUCUCGAUCUAACAAAACAGACAAAUCUGCCACAAAGCUUGAGAGCAACUUCGGAUGCAGAGGCGGCAGCCUUCGGUGGCGCGAUAGUGCCAACGUUCUCAACUAUGACACGCAAAACGCGUGCUCCGGUGAAUGGAGUUUAUCAUG [A23C U53A C93U U134G]	≤ -4.2
GGAUCUUCUCGAUCUAACAAAAGAGACAAAUCUGCCACAAAGCUUGAGAGCUUCUUCGGAUGCAGAGGCGGCAGCCUUCGGUGGCGCGAUAGCGCCAACGUUCUCAACUAUGACACGAAAAUCGCGUGCUCCGUUGAAUGGAGUUUAUCAUG [A23G A52U C118A A122U]	≤ -4.2
GGAUCUUCUCGAUCUAACAAAAGAGACAAAUCUGUCACAAAGCUUGAGAGUAUCUUCGGAUGCAGAGGCGGCAGCCUUCGGUGGCGCGAUAGGGCCAACGUUCUCAACUAUGACACGCAAGUCGCGUGCUCCGUUGAAUGGAGUUUAUCAUG [A23G C35U C51U C93G A121G A122U]	≤ -4.2
GGAUCUUCUCGAUCUAACAAAAGAGACAAAUCUGUCACAAAGCUUGAGAGCAUCUACGGAUGCAGAGGCGGCAGCCUUCGGUGGAGCGAUAGCGCCAACGUUCUCAACUAUGACACGUAAAACUCGUGCUCCGUUGAAUGGAGUUUAUCAUG [A23G C35U U56A C85A C118U G124U]	-4.08
GGAUCUUCUCGAUCUAACAAAACAGACAAAUCUGCCACAAAGCUUGAGAGCAUCUUCGGAUGCAGAGGCGGCAGCCUUCGGUGGCGCGAUAGCGCCAACGUUCUCAACUAUGACACGCAAAACGCGUGCUCCGUUGAAUGGAGCUUAUCAUG [A23C U144C]	-4.15
GGAUCUUCUCGAUCUAACAAAACAGACAAAUCUGCCACAAAGCUUGAGAGUAUCUUCAGAUGCAGAGGCGGCAGUCUUCGGUGGGGCGAUAGCGCCAACGUUCUCAACUAUGACACGCAAAACGCGUGCUCCGUUGAAUGGAAUGUAUCAUG [A23C C51U G58A C75U C85G G143A U145G]	≤ -4.2
GGAUCUUCUCGAUCUAACAAAAGAGACAAAUCUGCCACAAAGCUUGAGAGCAUGUACGGAUGCAGAGGCGGCAGCCUUCGGUGGCGCGAUAGCGCCAACGUUCUCAACUAUGACACGCAAAACGCGUGCUCCGUUGAAUGGCGUUUAUCAUG [A23G C54G U56A A142C]	≤ -4.2
GGAUCUUCUCGAUCUAACAAAACAGACAAAUCUGCCACAAAGCUUGAGAGCAUCUUCGGAUGCAGAAGCGGCUGCCUUCGGUGGCGCGAUAGCGCUAACGUUCUCAACUAUGACACGCAAAACGCGUGCUCCGUUGAAUCGAGUUUAUCAUG [A23C G67A A73U C96U G140C]	≤ -4.2
